± gives the standard deviation of the averaged measurements.
B1: library; a variant is named by its letters at N, in order (parent)
chain: GCUGUCACCGAGAAACUGUGAAGUAUAUCUUAAACCUGGGCACUUAAAAGAUAUAUGGAGUUAGUAGUGCAACCUGCUCGGUCUGAUGAGUCCNNNNNNGGACGAAACAGC

Tests used:
cyclic di-GMP [1] = variants of: B1; experiment: normalized RNA/DNA level without ligand (relative to sTRSVctl = 100) (log10 (% of sTRSVctl)); HEK293T; ligand: cyclic di-GMP (c-di-GMP-II aptamer); higher = less ribozyme self-cleavage, higher mRNA level; conditions: reporter: mCherry (pCS4076), ligand present: no
Procedure, shortened: (§1)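 Library plasmids carrying ribozyme switches linked to mCherry, or to eGFP in some ligand experiments, were transfected into HEK293T at 4 µg per 6-well well, with any ligand added 1 h earlier. Seventy-two hours on, total RNA was extracted with EDTA and reverse-transcribed, amplified, barcoded and sequenced. RNA level was RNA over DNA reads normalized to a spiked-in non-cleaving sequence or to the top sequences, then scaled and log-transformed. The top set was 25 sequences, the transform was ×100 and log10, and sequences needed ≥100 DNA reads.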

cyclic di-GMP [2] = variants of: B1; experiment: normalized RNA/DNA level with ligand (relative to sTRSVctl = 100) (log10 (% of sTRSVctl)); HEK293T; ligand: cyclic di-GMP (c-di-GMP-II aptamer); ligand concentration (+) RNA-Seq: 1 mM; higher = less ribozyme self-cleavage, higher mRNA level; conditions: reporter: mCherry (pCS4076), ligand present: yes
Procedure, shortened: as §1

| Variant | normalized RNA/DNA level without ligand (log10) (cyclic di-GMP [1]) | normalized RNA/DNA level with ligand (log10) (cyclic di-GMP [2]) |
| --- | --- | --- |
| AGGCGC | 1.74 ± 0.075 | 1.86 ± 0.088 |
| GCAACG | 1.54 ± 0.046 | 1.78 ± 0.11 |
| AUAGCG | 1.73 ± 0.02 | 1.85 ± 0.15 |
| AUGACA | 1.581 ± 0.013 | 1.72 ± 0.14 |
| GUCCGU | 1.65 ± 0.038 | 1.82 ± 0.069 |
| CAGGGU | 1.673 ± 0.014 | 1.82 ± 0.096 |
| GAAGAC | 1.563 ± 0.0055 | 1.76 ± 0.12 |
| CUGAGA | 1.46 ± 0.079 | 1.69 ± 0.11 |
| CUCGAU | 1.72 ± 0.023 | 1.86 ± 0.081 |
| ACCAUG | 1.61 ± 0.099 | 1.74 ± 0.057 |
| UCGCGU | 1.66 ± 0.083 | 1.84 ± 0.089 |
| UCGCGG | 1.78 ± 0.051 | 1.85 ± 0.14 |
| UCAUUG | 1.617 ± 0.0034 | 1.82 ± 0.082 |
| CUAUUG | 1.626 ± 0.0055 | 1.81 ± 0.1 |
| ACUGCC | 1.744 ± 0.016 | 1.88 ± 0.12 |
| AGCUUU | 1.712 ± 0.0062 | 1.85 ± 0.12 |
| UACGUU | 1.684 ± 0.0031 | 1.84 ± 0.093 |
| ACAGUC | 1.62 ± 0.045 | 1.78 ± 0.11 |
| AACGCG | 1.702 ± 0.008 | 1.82 ± 0.12 |
| CAGAGG | 1.64 ± 0.069 | 1.8 ± 0.046 |
| GUGUCG | 1.685 ± 0.012 | 1.79 ± 0.11 |
| GUGUCA | 1.75 ± 0.027 | 1.85 ± 0.11 |
| AAGUCA | 1.63 ± 0.06 | 1.77 ± 0.14 |
| UAUAUA | 1.68 ± 0.076 | 1.86 ± 0.11 |

| Variant | normalized RNA/DNA level without ligand (log10) (cyclic di-GMP [1]) | normalized RNA/DNA level with ligand (log10) (cyclic di-GMP [2]) |
| --- | --- | --- |
| UGGUCC | 1.86 ± 0.085 | 1.98 ± 0.085 |
| AGCCAC | 1.7 ± 0.041 | 1.86 ± 0.087 |
| GCAUGG | 1.46 ± 0.15 | 1.67 ± 0.064 |
| GGGGAA | 1.48 ± 0.1 | 1.54 ± 0.055 |
| UGACCA | 1.7585 ± 0.0012 | 1.88 ± 0.074 |
| GCUUUG | 1.66 ± 0.03 | 1.83 ± 0.13 |
| AAGCGG | 1.81 ± 0.035 | 1.88 ± 0.069 |
| CUACCG | 1.82 ± 0.095 | 1.91 ± 0.098 |
| CUACCA | 1.621 ± 0.016 | 1.79 ± 0.12 |
| AGAGAU | 1.661 ± 0.0087 | 1.79 ± 0.11 |
| UUAGUU | 1.77 ± 0.019 | 1.86 ± 0.14 |
| UAAGGG | 1.58 ± 0.031 | 1.73 ± 0.13 |
| CCGCCU | 1.7 ± 0.0065 | 1.84 ± 0.099 |
| UUUGGC | 1.79 ± 0.033 | 1.9 ± 0.16 |
| AGAGGG | 1.47 ± 0.098 | 1.62 ± 0.13 |
| UGUGGC | 1.742 ± 0.0053 | 1.89 ± 0.082 |
| AGUUCC | 1.8 ± 0.043 | 1.9 ± 0.084 |
| CCCGCA | 1.66 ± 0.037 | 1.8 ± 0.08 |
| AAUUCG | 1.6472 ± 0.0012 | 1.8 ± 0.12 |
| CGUGGG | 1.62 ± 0.058 | 1.8 ± 0.073 |
| GUUCGC | 1.83 ± 0.062 | 1.92 ± 0.073 |
| UAUCUU | 1.72 ± 0.054 | 1.88 ± 0.088 |
| UAGUAC | 1.68 ± 0.037 | 1.8 ± 0.12 |
| UCGGGA | 1.46 ± 0.035 | 1.72 ± 0.11 |

| Variant | normalized RNA/DNA level without ligand (log10) (cyclic di-GMP [1]) | normalized RNA/DNA level with ligand (log10) (cyclic di-GMP [2]) |
| --- | --- | --- |
| ACAUCG | 1.51 ± 0.1 | 1.71 ± 0.16 |
| GUUCAG | 1.77 ± 0.023 | 1.86 ± 0.12 |
| GCCGUU | 1.596 ± 0.013 | 1.77 ± 0.11 |
| ACGAGC | 1.62 ± 0.049 | 1.76 ± 0.084 |
| UGGCGA | 1.597 ± 0.0046 | 1.74 ± 0.11 |
| UGUCUG | 1.736 ± 0.0044 | 1.88 ± 0.08 |
| UAAUUA | 1.7 ± 0.018 | 1.85 ± 0.062 |
| CUCCCU | 1.661 ± 0.0018 | 1.76 ± 0.05 |
| CCCGAC | 1.7 ± 0.018 | 1.81 ± 0.14 |
| CAACAG | 1.6987 ± 0.0016 | 1.85 ± 0.13 |
| UCGUUA | 1.44 ± 0.076 | 1.63 ± 0.051 |
| UUGCUC | 1.788 ± 0.015 | 1.86 ± 0.071 |
| GAAUCU | 1.698 ± 0.0076 | 1.82 ± 0.12 |
| UUGUCG | 1.79 ± 0.032 | 1.89 ± 0.05 |
| GUUCCU | 1.76 ± 0.079 | 1.89 ± 0.13 |
| UAGGGG | 1.563 ± 0.0094 | 1.72 ± 0.079 |
| UGUCCG | 1.856 ± 0.0053 | 1.95 ± 0.042 |
| UGGUUA | 1.67 ± 0.019 | 1.85 ± 0.042 |
| GGAGAC | 1.72 ± 0.035 | 1.85 ± 0.059 |
| GGCGAA | 1.558 ± 0.0061 | 1.77 ± 0.2 |
| CUAUGC | 1.75 ± 0.042 | 1.86 ± 0.12 |
| CUCUGG | 1.81 ± 0.066 | 1.86 ± 0.14 |
| AACGAC | 1.6 ± 0.04 | 1.79 ± 0.12 |
| CAGCAC | 1.65 ± 0.067 | 1.79 ± 0.025 |

| Variant | normalized RNA/DNA level without ligand (log10) (cyclic di-GMP [1]) | normalized RNA/DNA level with ligand (log10) (cyclic di-GMP [2]) |
| --- | --- | --- |
| GUGGCU | 1.76 ± 0.029 | 1.86 ± 0.074 |
| GCGAUG | 1.59 ± 0.06 | 1.79 ± 0.096 |
| CCAAGG | 1.688 ± 0.013 | 1.8 ± 0.1 |
| CAAGAG | 1.6 ± 0.023 | 1.78 ± 0.14 |
| CGUCAG | 1.79 ± 0.056 | 1.92 ± 0.11 |
| AUAAAU | 1.59 ± 0.005 | 1.8 ± 0.11 |
| GCUUAU | 1.6 ± 0.017 | 1.76 ± 0.13 |
| CUAGGU | 1.7 ± 0.026 | 1.85 ± 0.14 |
| UGCGAU | 1.605 ± 0.0035 | 1.8 ± 0.091 |
| UGAAAC | 1.705 ± 0.017 | 1.84 ± 0.062 |
| UGAAAG | 1.77 ± 0.047 | 1.87 ± 0.1 |
| GUCCCU | 1.77 ± 0.024 | 1.92 ± 0.091 |
| GUCUCG | 1.867 ± 0.0092 | 1.88 ± 0.073 |
| GGGUAG | 1.85 ± 0.057 | 1.89 ± 0.059 |
| GGCUUG | 1.64 ± 0.062 | 1.851 ± 0.0082 |
| AGGUGG | 1.69 ± 0.031 | 1.78 ± 0.12 |
| CCCCAG | 1.679 ± 0.008 | 1.82 ± 0.11 |
| GGUCAU | 1.56 ± 0.055 | 1.83 ± 0.081 |
| GUCUUC | 1.7 ± 0.015 | 1.87 ± 0.097 |
| AGGGCA | 1.756 ± 0.017 | 1.81 ± 0.048 |
| AGACCA | 1.75 ± 0.031 | 1.88 ± 0.15 |
| GAAAAC | 1.59 ± 0.016 | 1.74 ± 0.063 |
| UGUAAU | 1.679 ± 0.01 | 1.84 ± 0.14 |
| GUUCUC | 1.75 ± 0.035 | 1.88 ± 0.068 |

| Variant | normalized RNA/DNA level without ligand (log10) (cyclic di-GMP [1]) | normalized RNA/DNA level with ligand (log10) (cyclic di-GMP [2]) |
| --- | --- | --- |
| UUUGCU | 1.76 ± 0.057 | 1.88 ± 0.14 |
| UGACAG | 1.712 ± 0.0029 | 1.82 ± 0.097 |
| ACGGUG | 1.6002 ± 0.00028 | 1.74 ± 0.1 |
| CAACCG | 1.817 ± 0.009 | 1.88 ± 0.071 |
| AUACAC | 1.71 ± 0.02 | 1.82 ± 0.081 |
| GACCAC | 1.69 ± 0.056 | 1.85 ± 0.12 |
| CGUGUU | 1.6 ± 0.033 | 1.78 ± 0.12 |
| AAACGC | 1.67 ± 0.027 | 1.85 ± 0.082 |
| UAACCU | 1.71 ± 0.031 | 1.86 ± 0.072 |
| UGCUUA | 1.75 ± 0.023 | 1.87 ± 0.095 |
| GUAUCU | 1.68 ± 0.038 | 1.82 ± 0.084 |
| CUAGUU | 1.739 ± 0.0023 | 1.89 ± 0.06 |
| CGCCGG | 1.711 ± 0.011 | 1.85 ± 0.11 |
| UUAGGG | 1.65 ± 0.018 | 1.8 ± 0.12 |
| UGGAAG | 1.68 ± 0.026 | 1.81 ± 0.17 |
| UGCUCU | 1.77 ± 0.018 | 1.92 ± 0.05 |
| AUAAUC | 1.677 ± 0.0067 | 1.77 ± 0.08 |
| UGAGUU | 1.67 ± 0.017 | 1.8 ± 0.091 |
| CCCUCU | 1.62 ± 0.03 | 1.8 ± 0.12 |
| CAGGUA | 1.57 ± 0.081 | 1.67 ± 0.11 |

Reference: the supplement of paper PMC6757056
